Test results as given in patent US20200317776A1 (published 2020).
Read-outs that look alike come from different tables or passages of the source.

B1: AL2p-58 huIgG1 (antibody)
heavy: not shown
light: DVVMTQSPDSLAVSLGERATINCRSSQSLVHSNRYTYLHWYQQKPGQSPKLLIYKVSNRFSGVPDRFSGSGSGTDFTLKISRVEAEDVGVYYCSQSTRVPYTFGQGTKLEIKRTVAAPSVFIFPPSDEQLKSGTASVVCLLNNFYPREAKVQWKVDNALQSGNSQESVTEQDSKDSTYSLSSTLTLSKADYEKHKVYACEVTHQGLSSPVTKSFNRGEC
notes: also called AL2p-58 huIgG1 WT
B2: AL2p-58 huIgG1 PSEG (antibody)
heavy: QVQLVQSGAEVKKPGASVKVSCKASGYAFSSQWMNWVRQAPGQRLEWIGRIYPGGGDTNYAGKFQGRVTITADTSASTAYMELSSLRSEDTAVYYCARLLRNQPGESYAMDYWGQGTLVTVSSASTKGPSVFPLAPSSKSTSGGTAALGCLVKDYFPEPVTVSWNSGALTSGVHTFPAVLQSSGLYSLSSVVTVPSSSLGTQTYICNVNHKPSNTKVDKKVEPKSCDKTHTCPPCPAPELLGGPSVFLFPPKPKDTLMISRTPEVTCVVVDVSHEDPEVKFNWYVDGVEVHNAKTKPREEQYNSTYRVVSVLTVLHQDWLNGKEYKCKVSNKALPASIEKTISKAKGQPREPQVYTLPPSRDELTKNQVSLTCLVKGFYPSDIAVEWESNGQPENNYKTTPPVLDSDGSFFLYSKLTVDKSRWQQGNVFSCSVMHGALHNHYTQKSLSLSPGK
light: DVVMTQSPDSLAVSLGERATINCRSSQSLVHSNRYTYLHWYQQKPGQSPKLLIYKVSNRFSGVPDRFSGSGSGTDFTLKISRVEAEDVGVYYCSQSTRVPYTFGQGTKLEIKRTVAAPSVFIFPPSDEQLKSGTASVVCLLNNFYPREAKVQWKVDNALQSGNSQESVTEQDSKDSTYSLSSTLTLSKADYEKHKVYACEVTHQGLSSPVTKSFNRGEC
notes: IgG1 with P331S and E430G; also called AL2p-58 PSEG
B3: AL2p-31 (antibody, V domains shown)
VH: QVQLVQSGAEVKKPGSSVKVSCKASGYAFSSQWMNWVRQAPGQGLEWMGRIYPGGGDTNYARKFQGRVTITADESTSTAYMELSSLRSEDTAVYYCARLLRNQPGESYAMDYWGQGTLVTVSS
VL: GVVMTQTPLSLSVTPGQPASISCRSSQSLVHSNGYTYLHWYLQKPGQSPQLLIYKVSNRRSGVPDRFSGSGSGTDFTLKISRVEAEDVGVYYCSQSTRVPYTFGQGTKLEIK
notes: Fab and IgG formats under one id
B4: AL2p-47 (antibody, V domains shown)
VH: QVQLVQSGAEVKKPGSSVKVSCKASGYAFSSDWMNWVRQAPGQGLEWMGRIYPGEGDTNYARKFHGRVTITADESTSTAYMELSSLRSEDTAVYYCARLLRNKPGESYAMDYWGQGTLVTVSS
VL: DVVMTQTPLSLSVTPGQPASISCRTSQSLVHSNAYTYLHWYLQKPGQSPQLLIYKVSNRVSGVPDRFSGSGSGTDFTLKISRVEAEDVGVYYCSQSTRVPYTFGQGTKLEIK
notes: Fab and IgG formats under one id (explicit huIgG1 is m97); also called AL2-47
B5: AL2p-58 (antibody, V domains shown)
VH: QVQLVQSGAEVKKPGASVKVSCKASGYAFSSQWMNWVRQAPGQRLEWIGRIYPGGGDTNYAGKFQGRVTITADTSASTAYMELSSLRSEDTAVYYCARLLRNQPGESYAMDYWGQGTLVTVSS
VL: DVVMTQSPDSLAVSLGERATINCRSSQSLVHSNRYTYLHWYQQKPGQSPKLLIYKVSNRFSGVPDRFSGSGSGTDFTLKISRVEAEDVGVYYCSQSTRVPYTFGQGTKLEIK
notes: Fab and IgG formats under one id (explicit huIgG1 is m95, PSEG is m96)

Key:
[1] = target: T1, human TREM2 expressed on cells (human, UniProt Q9NZC2 19-230); test: FACS, hTREM2 BW cells
T1 construct: BW5147.G.1.4 cells stably expressing human TREM2 together with Dap12, or endogenous TREM2 of primary human myeloid cells; also called huT2 BW; hTREM2 expressing cell line
T1 sequence: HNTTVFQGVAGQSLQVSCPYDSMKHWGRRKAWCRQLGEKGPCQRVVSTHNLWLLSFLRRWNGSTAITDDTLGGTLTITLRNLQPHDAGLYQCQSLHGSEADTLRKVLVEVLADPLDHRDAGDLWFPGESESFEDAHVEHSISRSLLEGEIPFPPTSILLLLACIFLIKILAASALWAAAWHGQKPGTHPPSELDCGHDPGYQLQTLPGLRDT

[2] = target: T2, human TREM2/DAP12 fusion protein (human, UniProt O43914 41-113, limits assumed); test: cell-based or functional assay
mouse TREM2 = target: T3, mouse TREM2 (mouse, UniProt Q99NH8 19-227); test: no effect on Dap12 phosphorylation in WT mice
T3 construct: Endogenous TREM2 of wild-type mice (peritoneal macrophages); also called murine TREM2
T3 sequence: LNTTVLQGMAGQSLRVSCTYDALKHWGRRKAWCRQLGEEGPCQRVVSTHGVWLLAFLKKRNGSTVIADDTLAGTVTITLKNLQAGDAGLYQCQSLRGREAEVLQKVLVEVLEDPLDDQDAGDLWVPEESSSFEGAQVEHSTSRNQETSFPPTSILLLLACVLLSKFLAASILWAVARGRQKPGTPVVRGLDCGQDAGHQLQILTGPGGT

[3] = target: T1, human TREM2 expressed on cells; test: cell-based or functional assay
[4] = target: T2, human TREM2/DAP12 fusion protein; test: cell-based or functional assay; remark: listed apart in the source
[5] = target: T2, human TREM2/DAP12 fusion protein; test: cell-based or functional assay; remark: listed apart in the source
[6] = target: T1, human TREM2 expressed on cells; test: cell-based or functional assay; remark: listed apart in the source
[7] = target: T2, human TREM2/DAP12 fusion protein; test: cell-based or functional assay; remark: listed apart in the source
[8] = target: T1, human TREM2 expressed on cells; test: FACS, hTREM2 expressing cell line
[9] = target: T4, cynomolgus monkey TREM2 Fc fusion (entire TREM2 ECD; only one Fc arm fused to TREM2) (cynomolgus monkey, UniProt Q9NZC2 19-174 (human entry)); test: BLI, Fab, monovalent
T4 construct: also called cyno TREM2-Fc
T4 chain: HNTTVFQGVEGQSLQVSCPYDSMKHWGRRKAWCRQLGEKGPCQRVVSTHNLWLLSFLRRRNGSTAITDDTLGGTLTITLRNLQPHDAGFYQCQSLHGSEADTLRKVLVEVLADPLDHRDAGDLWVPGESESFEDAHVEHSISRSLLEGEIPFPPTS

[10] = target: T5, human TREM2 Fc fusion (entire TREM2 ECD; only one Fc arm fused to TREM2) (human, UniProt Q9NZC2 19-174); test: BLI, Fab, monovalent
T5 construct: also called huTREM2-Fc; recombinant hTREM2
T5 sequence: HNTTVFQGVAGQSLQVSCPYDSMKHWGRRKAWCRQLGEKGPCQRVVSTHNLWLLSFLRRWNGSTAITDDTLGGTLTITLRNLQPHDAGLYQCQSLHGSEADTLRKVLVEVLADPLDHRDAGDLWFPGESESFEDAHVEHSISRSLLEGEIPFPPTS

[11] = target: T2, human TREM2/DAP12 fusion protein; test: cell-based or functional assay; remark: listed apart in the source
[12] = target: T1, human TREM2 expressed on cells; test: cell-based or functional assay; remark: listed apart in the source
[13] = target: T1, human TREM2 expressed on cells; test: FACS, human DCs
In short: (§1)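 Cells were BW5147.G.1.4 stably expressing human TREM2 with Dap12, or human monocyte-derived dendritic cells differentiated 6 days with GM-CSF and IL-4. Antibodies bound 1 h on ice in PBS+2% FBS, then PE anti-human secondary 30 min on ice; flow cytometry read-out as mean fluorescence intensity.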

[14] = target: T2, human TREM2/DAP12 fusion protein; test: cell-based or functional assay; remark: listed apart in the source
[15] = target: T5, human TREM2 Fc fusion (entire TREM2 …); test: BLI, IgG, avid
In short: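 Avid format: AHQ-loaded IgGs exposed to 100 nM human or cyno TREM2-Fc antigen, 3 min association, 3 min dissociation in buffer. Monovalent format: human TREM2-Fc loaded on AHQ sensors, exposed to 100 nM Fab. Kinetics fit to 1:1 model, run at 25° C.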

[16] = target: T2, human TREM2/DAP12 fusion protein; test: cell-based or functional assay; remark: listed apart in the source
[17] = target: T1, human TREM2 expressed on cells; test: FACS, hTREM2 BW cells; remark: listed apart in the source
In short: as §1

[18] = target: T1, human TREM2 expressed on cells; test: FACS, hTREM2 BW cells; remark: listed apart in the source
[19] = target: T5, human TREM2 Fc fusion (entire TREM2 …); test: BLI

Binder | Bmax (MFI) [1] | Kd [1] | Plate bound IgG, fold over unstimulated control (25 nM IgG) [2] | Soluble IgG, EC50 [2] | Soluble IgG, fold over control IgG (17 nM IgG) [2] | EC50 viability, dendritic cells D558 [3] | EC50 viability, dendritic cells D559 [3] | EC50 viability, dendritic cells D560 [3] | EC50 viability, macrophages D558 [3] | EC50 viability, macrophages D559 [3] | EC50 viability, macrophages D560 [3] | BW Luc assay plate bound 7.3 nM IgG, FOC [5] | Reporter assay plate bound IgG (EC50, nM) [7] | Reporter assay soluble IgG (EC50, nM) [7] | Kd [8] | Kd [9] | Kd [10] | luciferase activation, plate bound IgG, EC50 [14] | luciferase activation, soluble IgG, EC50 [14] | Kd [17] | also measured
B1 | 196000 MFI | 0.63 nM | 9.88 fold | 4.83 nM | 9.97 fold | 0.288 nM | 0.341 nM | 0.271 nM | 0.005 nM | 0.359 nM | 0.469 nM |  |  |  |  |  |  |  |  |  | binding result (mouse TREM2): no binding
B2 | 140000 MFI | 0.36 nM | 12.9 fold | 2.99 nM | 12.1 fold | 0.206 nM | 0.276 nM | 0.206 nM | 0.001 nM | 0.322 nM | 0.426 nM |  |  |  |  |  |  |  |  |  | plate bound signal activation, fold over AL2p [4]: ~10 fold over AL2p
B3 |  |  |  |  |  |  |  |  |  |  |  | 7.49 FOC | 10.1 nM | 11.4 nM | 0.56 nM | 3.44 nM | 4.03 nM | 10.1 nM | 1.14 nM | 1 nM | BW Luc assay soluble 7.3 nM IgG, FOC [5]: 4.48 FOC; DC viability (AUC) [6]: 860000 AUC; Mac viability (AUC) [6]: 83700 AUC; Luciferase activation plate bound 33 nM IgG, FOC [11]: 28.2 FOC; Luciferase activation soluble 10 nM IgG, FOC [11]: 2.83 FOC; Survival huDCs plate bound IgG, AUC [12]: 1.21e+06 AUC; MFI [13]: 288 MFI; Kd [15]: 0.317 nM; luciferase activation, soluble IgG, EC50 [16]: 6.92 nM; Kd [18]: 1.23 nM
B4 |  |  |  |  |  |  |  |  |  |  |  | 3.54 FOC | 206 nM | 105 nM | 1.22 nM | 16.3 nM | 14.8 nM | 206 nM | 104 nM | 1.09 nM | BW Luc assay soluble 7.3 nM IgG, FOC [5]: 3.48 FOC; DC viability (AUC) [6]: 771000 AUC; Mac viability (AUC) [6]: 22100 AUC; MFI [13]: 372 MFI; fold improvement in affinity (KD) vs AL2p [19]: ~10 fold
B5 |  |  |  |  |  |  |  |  |  |  |  |  | 36.1 nM | 14 nM | 0.51 nM | 12.4 nM | 13.3 nM | 36 nM | 14 nM | 0.51 nM | fold improvement in affinity (KD) vs AL2p [19]: ~10 fold
